According to paper PMC10746525:

B1: MBP-TRAK1_(342-431) [human] / MIRO1_(177-591) [human] (parent)
chain 1: EAQEELKNLRNKTMPNTTSRRYHSLGLFPMDSLAAEIEGTMRKELQLEEAESPDITHQKRVFETVRNINQVVKQRSLTPSPMNIPGSNQS
chain 2: EEKEMKPACIKALTRIFKISDQDNDGTLNDAELNFFQRICFNTPLAPQALEDVKNVVRKHISDGVADSGLTLKGFLFLHTLFIQRGRHETTWTVLRRFGYDDDLDLTPEYLFPLLKIPPDCTTELNHHAYLFLQSTFDKHDLDRDCALSPDELKDLFKVFPYIPWGPDVNNTVCTNERGWITYQGFLSQWTLTTYLDVQRCLEYLGYLGYSILTEQESQASAVTVTRDKKIDLQKKQTQRNVFRCNVIGVKNCGKSGVLQALLGRNLMRQKKIREDHKSYYAINTVYVYGQEKYLLLHDISESEFLTEAEIICDVVCLVYDVSNPKSFEYCARIFKQHFMDSRIPCLIVAAKSDLHEVKQEYSISPTDFCRKHKMPPPQAFTCNTADAPSKDIFVKLTTMAMYPHVTQADLKSST
B2: MBP-TRAK1_(342-431) [human] / MIRO1_(177-591) [human] (parent)
chain 1: B1 chain 2
chain 2: B1 chain 1

How the values were obtained:
[1] = variants of: B1; test: ITC; conditions: with MIRO1_(177-591) [human]; 370 µM MBP-TRAK1(342-431) 400KR401 to AA in syringe, 30 µM MIRO1(177-591) in cell; ITC buffer with 5 mM EGTA
[2] = variants of: B2; test: ITC; conditions: with MIRO1_(177-591) [human]; 370 µM MIRO1(177-591) in syringe, 35 µM MBP-TRAK1(342-431) 400KR401 to AA in cell; ITC buffer with 5 mM EGTA

Kd [1]	screen value [1]	Kd [2]	screen value [2]	Variant
9.62 µM	0.91	–	–	chain 1 K59A R60A
–	–	7.52 µM	0.74	chain 2 K59A R60A
